Experiment [1] deals with Human α7 nAChR expressed in GH4C1 cells (human) (UniProt P36544). Nature of the experiment: radioligand binding.
In experiment [2] the target is Acetylcholine binding protein (AChBP) from Lymnaea stagnalis (L. stagnalis) (UniProt P58154). The experiment can be described thus: radioligand binding.
The target in experiment [3] is Muscle-type nAChR of Torpedo californica electric organ (Torpedo californica). Nature of the experiment: radioligand binding.
Experiment [4] has as its target Acetylcholine binding protein (AChBP) from Lymnaea stagnalis (L. stagnalis) (UniProt P58154). Nature of the experiment: SPR. For orientation: In SPR one partner is held on a chip, and binding of the other changes the refractive index at the surface.

Experimental findings from PMC5638340 are described below.

Human α7 nAChR expressed in GH4C1 cells (human), sequence (P36544 23-502): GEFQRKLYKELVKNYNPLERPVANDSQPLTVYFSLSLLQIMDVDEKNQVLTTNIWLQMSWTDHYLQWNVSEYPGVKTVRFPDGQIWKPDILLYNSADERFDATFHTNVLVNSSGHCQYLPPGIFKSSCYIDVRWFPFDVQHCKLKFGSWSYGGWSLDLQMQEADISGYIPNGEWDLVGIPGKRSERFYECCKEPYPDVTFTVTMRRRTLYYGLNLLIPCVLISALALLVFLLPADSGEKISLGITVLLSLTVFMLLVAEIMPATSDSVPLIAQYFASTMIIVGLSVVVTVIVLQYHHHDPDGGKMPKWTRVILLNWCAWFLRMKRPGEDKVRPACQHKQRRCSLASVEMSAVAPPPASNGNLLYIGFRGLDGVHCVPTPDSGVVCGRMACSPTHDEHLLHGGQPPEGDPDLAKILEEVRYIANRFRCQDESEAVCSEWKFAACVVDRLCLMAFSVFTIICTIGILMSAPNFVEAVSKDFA
Acetylcholine binding protein (AChBP) from Lymnaea stagnalis (L. stagnalis), sequence (P58154 20-229): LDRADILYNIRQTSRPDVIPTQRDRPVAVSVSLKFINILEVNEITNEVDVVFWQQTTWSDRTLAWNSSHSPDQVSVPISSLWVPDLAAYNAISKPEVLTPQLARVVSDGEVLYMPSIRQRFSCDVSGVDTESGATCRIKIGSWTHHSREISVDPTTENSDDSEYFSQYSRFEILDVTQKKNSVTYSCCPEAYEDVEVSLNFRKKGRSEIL
Muscle-type nAChR of Torpedo californica electric organ (Torpedo californica), sequence (P02710 25-461, chain 1 of 4): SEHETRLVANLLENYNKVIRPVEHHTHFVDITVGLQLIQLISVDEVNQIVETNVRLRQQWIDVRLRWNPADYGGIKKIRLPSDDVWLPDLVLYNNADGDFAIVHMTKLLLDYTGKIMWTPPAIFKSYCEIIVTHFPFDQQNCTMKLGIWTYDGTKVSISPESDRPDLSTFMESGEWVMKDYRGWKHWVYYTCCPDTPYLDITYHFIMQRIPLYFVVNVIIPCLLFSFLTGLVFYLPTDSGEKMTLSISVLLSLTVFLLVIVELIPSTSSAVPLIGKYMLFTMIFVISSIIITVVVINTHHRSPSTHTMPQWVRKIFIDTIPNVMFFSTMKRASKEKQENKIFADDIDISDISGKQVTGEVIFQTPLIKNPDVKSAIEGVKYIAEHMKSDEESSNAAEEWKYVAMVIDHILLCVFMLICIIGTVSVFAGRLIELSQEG
Muscle-type nAChR of Torpedo californica electric organ (Torpedo californica), sequence (P02712 25-493, chain 2 of 4, further chain): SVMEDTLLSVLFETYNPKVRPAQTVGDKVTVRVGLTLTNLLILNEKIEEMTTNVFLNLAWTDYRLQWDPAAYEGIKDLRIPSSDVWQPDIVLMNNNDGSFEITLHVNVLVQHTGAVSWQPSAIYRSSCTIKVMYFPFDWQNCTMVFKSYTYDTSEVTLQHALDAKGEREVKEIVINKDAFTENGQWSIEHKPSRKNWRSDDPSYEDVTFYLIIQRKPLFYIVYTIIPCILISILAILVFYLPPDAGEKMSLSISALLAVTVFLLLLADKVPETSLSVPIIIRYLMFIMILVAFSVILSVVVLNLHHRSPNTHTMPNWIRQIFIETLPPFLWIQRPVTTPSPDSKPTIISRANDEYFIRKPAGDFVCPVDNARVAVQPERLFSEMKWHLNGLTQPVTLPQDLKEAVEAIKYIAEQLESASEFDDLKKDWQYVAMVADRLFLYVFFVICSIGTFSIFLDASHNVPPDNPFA
Muscle-type nAChR of Torpedo californica electric organ (Torpedo californica), sequence (P02714 18-506, chain 3 of 4, further chain): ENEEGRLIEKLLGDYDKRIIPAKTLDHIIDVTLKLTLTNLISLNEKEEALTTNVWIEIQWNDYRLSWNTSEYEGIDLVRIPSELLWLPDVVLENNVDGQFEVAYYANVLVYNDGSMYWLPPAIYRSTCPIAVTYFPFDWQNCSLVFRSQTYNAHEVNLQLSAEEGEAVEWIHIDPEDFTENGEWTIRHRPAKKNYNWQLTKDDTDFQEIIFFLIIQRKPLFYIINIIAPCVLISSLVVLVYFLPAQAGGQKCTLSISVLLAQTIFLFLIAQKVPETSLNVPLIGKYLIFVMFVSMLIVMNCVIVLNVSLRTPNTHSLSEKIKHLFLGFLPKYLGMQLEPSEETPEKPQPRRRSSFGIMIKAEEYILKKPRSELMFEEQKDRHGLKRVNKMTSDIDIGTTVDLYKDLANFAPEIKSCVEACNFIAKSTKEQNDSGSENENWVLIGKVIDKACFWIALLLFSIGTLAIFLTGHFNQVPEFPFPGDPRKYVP
Muscle-type nAChR of Torpedo californica electric organ (Torpedo californica), sequence (P02718 22-522, chain 4 of 4, further chain): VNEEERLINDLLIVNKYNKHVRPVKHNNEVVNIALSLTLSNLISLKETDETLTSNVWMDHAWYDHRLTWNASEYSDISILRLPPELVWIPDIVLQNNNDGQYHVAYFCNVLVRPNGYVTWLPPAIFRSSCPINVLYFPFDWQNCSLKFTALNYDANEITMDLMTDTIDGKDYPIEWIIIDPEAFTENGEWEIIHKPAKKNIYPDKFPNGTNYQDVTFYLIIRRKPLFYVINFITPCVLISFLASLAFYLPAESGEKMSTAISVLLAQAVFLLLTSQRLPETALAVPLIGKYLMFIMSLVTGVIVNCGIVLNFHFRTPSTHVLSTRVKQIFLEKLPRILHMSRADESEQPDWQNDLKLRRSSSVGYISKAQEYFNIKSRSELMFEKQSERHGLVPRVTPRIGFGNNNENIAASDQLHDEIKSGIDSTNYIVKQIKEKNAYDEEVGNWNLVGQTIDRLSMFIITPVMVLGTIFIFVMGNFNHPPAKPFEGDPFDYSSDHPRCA

By IC50 is commonly meant the concentration that inhibits the measured activity by half. A low value points to greater potency. For orientation: Kd means a measure of binding affinity in units of concentration. Read a high Kd as weaker binding. In experiment [1], “Crotoxin from Crotalus durissus terrificus venom (complex)” returned an IC50, high affinity site (two-site model) of 4.9 nM and an IC50, low affinity site (two-site model) of 15000 nM. Moreover, the IC50 in experiment [2] came out at 640 nM. In experiment [3], the IC50, high affinity site (two-site model) was determined as 30 nM and the IC50, low affinity site (two-site model) is 260 nM. Further, the Kd in experiment [4] is 120 nM.
